The target in the test is FOLR1-His (Homo sapiens, UniProt P15328). In words: SPR.
FOLR1-His, sequence (P15328 25-233): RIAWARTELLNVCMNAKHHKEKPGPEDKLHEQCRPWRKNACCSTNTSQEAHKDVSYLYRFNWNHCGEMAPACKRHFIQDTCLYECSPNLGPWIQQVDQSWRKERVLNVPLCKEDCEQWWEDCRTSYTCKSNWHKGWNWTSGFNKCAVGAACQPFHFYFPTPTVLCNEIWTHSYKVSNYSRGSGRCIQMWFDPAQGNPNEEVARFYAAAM

B1: KM8188 (antibody, V domains shown)
VH: EVQLVESGGGVVQPGRSLRLSCSASGFTFSGYGLSWVRQAPGKGLEWVAMISSGGSYTYYADSVKGRFAISRDNAKNTLFLQMDSLRPEDTGVYFCARHGDDPAWFAYWGQGTPVTVSS
VL: DIQLTQSPSSLSASVGDRVTITCSVSSSISSNNLHWYQQKPGKAPKPWIYGTSNLASGVPSRFSGSGSGTDYTFTISSLQPEDIATYYCQQWSSYPYMYTFGQGTKVEIK
The term Kd denotes the equilibrium constant for the complex coming apart. On to B1, for which binding was characterised by a dissociation constant (Kd) of 31.4 nM.

The values are drawn from publication PMC5508476 (Translational Oncology, 2017).
